PMC4290037, “Purification and Characterization of Glucose-6-Phosphate Dehydrogenase from Camel Liver” (Enzyme Research, 2014)

Substrate: NC(=O)c1ccc[n+]([C@@H]2O[C@H](COP(=O)(O)OP(=O)(O)OC[C@H]3O[C@@H](n4cnc5c(N)ncnc54)[C@H](OP(=O)(O)O)[C@@H]3O)[C@@H](O)[C@H]2O)c1
Assay: purified protein

B1: Glucose-6-phosphate dehydrogenase (camel liver G6PD) (Camelus dromedarius) (protein)
chain: AEQVALSRNQVCGILREELYQGDAFHQSDTHIFIIMGASGDLAKKKIYPTIWWLFRDGLLPEDTYIVGYARSRLTVADIRKQSEPFFKATPEEKPKLEEFFARNSYVAGQYDDAASYERLNSHMNALHQGSQANRLFYLALPPTVYEAVTKNIRETCMSQTGWNRIIVEKPFGRDLQSSNQLSNHISSLFREDQIYRIDHYLGKEMVQNLMVLRFANRIFGPIWNRDNIACVILTFKEPFGTEGRGGYFDEFGIIRDVMQNHLLQMLCLVAMEKPASTDSDDVRDEKVKVLKCISEVQANNVVLGQYVGNPNGEGEATKGYLDDPTVPRGSITATFAAVVLYVENERWDGVPFILRCGKALNERKAEVRLQFRDVAGDIFQQQCKRNEVVIRVQPNEAVYTKMMTKKPGMFFNPEESELDLTYGNRYKNVKLPDAYERLILDVFCGSQMHFVRSDELREAWRIFTPLLHKIEREKLQPIPYVYGSRGPAEADELMKRVGFQYEGTYKWVNPHKL
B1 showed a Km of 81 µM.
